Reference: patent publication US20110014200A1

What was measured:
[1] = target: wild-type human thyrotropin receptor (TSHR) (human) (UniProt P16473); assay: inhibition of 125I-TSH binding to monolayers of cells expressing human TSHR
[2] = target: wild-type human thyrotropin receptor (TSHR) (human) (UniProt P16473); assay: cell-based or functional assay
[3] = target: gain-of-function TSHR mutant I486F (human) (UniProt P16473); assay: cell-based or functional assay
[4] = target: gain-of-function TSHR mutant I568T (human) (UniProt P16473); assay: cell-based or functional assay
[5] = target: gain-of-function TSHR mutant A623I (human) (UniProt P16473); assay: cell-based or functional assay
[6] = target: gain-of-function TSHR mutant S281I (human) (UniProt P16473); assay: cell-based or functional assay

“monoclonal antibody CS-17 (produced by hybridoma CS-17, ATCC accession number PTA-8174)” gave a percent suppression of TSH binding at 10 µg/ml [1] of 35%, a CS-17 concentration producing half-maximal inhibition (IC50) of constitutive cAMP [2] of 1 µg/mL and a half maximal inhibitory concentration for TSHR constitutive activity (intracellular cAMP) [2] of 6.7 nM. The inverse agonist activity at 10 µg/ml (percent) [2] was 60 to 90%, the reduction of constitutive activity at 10 µg/ml (percent) [2] was over 60% and the CS-17 concentration producing half-maximal inhibition (IC50) of constitutive cAMP [3] was 1 µg/mL. For the same substance, the CS-17 concentration producing half-maximal inhibition (IC50) of constitutive cAMP [4] was 1 µg/mL, the CS-17 concentration producing half-maximal inhibition (IC50) of constitutive cAMP [5] was 1 µg/mL and the CS-17 concentration producing half-maximal inhibition (IC50) of constitutive cAMP [6] was 1 µg/mL.
